The first assay addresses Drosophila cathepsin B (Drosophila).
Substance crammer D6A (natural protein) had a CTSB activity % (residual activity on ZFR-AMC with 3 µM crammer variant, 75 nM CTSB, pH 5.0, 20°C) of 21.1%.

Turning to crammer E8A (natural protein), the CTSB activity % (residual activity on ZFR-AMC with 3 µM crammer variant, 75 nM CTSB, pH 5.0, 20°C) turned out to be 77.7%.

crammer E24A (natural protein) displayed a CTSB activity % (residual activity on ZFR-AMC with 3 µM crammer variant, 75 nM CTSB, pH 5.0, 20°C) of 19%.

As to crammer E67A (natural protein), the CTSB activity % (residual activity on ZFR-AMC with 3 µM crammer variant, 75 nM CTSB, pH 5.0, 20°C) stood at 54.1%.

In turn, crammer K36A (natural protein) displayed a CTSB activity % (residual activity on ZFR-AMC with 3 µM crammer variant, 75 nM CTSB, pH 5.0, 20°C) of 29%.

crammer R28A (natural protein) showed a CTSB activity % (residual activity on ZFR-AMC with 3 µM crammer variant, 75 nM CTSB, pH 5.0, 20°C) of 89%.

crammer R29A (natural protein) yielded a CTSB activity % (residual activity on ZFR-AMC with 3 µM crammer variant, 75 nM CTSB, pH 5.0, 20°C) of 64%.

The next assay shares this target. The source holds these as a separate data set.
“Drosophila melanogaster crammer, wild type (natural protein)” registered a CTSB activity % (residual activity on ZFR-AMC with 3 µM crammer variant, 75 nM CTSB, pH 5.0, 20°C) of 14.7%.

On to crammer F16A (natural protein), for which the CTSB activity % (residual activity on ZFR-AMC with 3 µM crammer variant, 75 nM CTSB, pH 5.0, 20°C) amounted to 34.6%.

The substance crammer F46A (natural protein) returned a CTSB activity % (residual activity on ZFR-AMC with 3 µM crammer variant, 75 nM CTSB, pH 5.0, 20°C) of 41%.

The substance crammer W9A (natural protein) yielded a CTSB activity % (residual activity on ZFR-AMC with 3 µM crammer variant, 75 nM CTSB, pH 5.0, 20°C) of 87.8%.

The substance crammer W53A (natural protein) returned a CTSB activity % (residual activity on ZFR-AMC with 3 µM crammer variant, 75 nM CTSB, pH 5.0, 20°C) of 85.2%.

For crammer Y12A (natural protein), the CTSB activity % (residual activity on ZFR-AMC with 3 µM crammer variant, 75 nM CTSB, pH 5.0, 20°C) is 63%.

In the case of crammer Y20A (natural protein), the CTSB activity % (residual activity on ZFR-AMC with 3 µM crammer variant, 75 nM CTSB, pH 5.0, 20°C) came to 47.8%.

Take crammer Y32A (natural protein): the CTSB activity % (residual activity on ZFR-AMC with 3 µM crammer variant, 75 nM CTSB, pH 5.0, 20°C) was determined as 67.6%.

Another assay has the same target. This is another data set of the same source.
As to crammer F16A (natural protein), the reduction of CTSB activity at 3 µM crammer variant (text's number; differs from 100 minus the table's cell) amounted to 64%.
